B1: 24A1_mIgG1: recombinant mouse IgG1 antibody with 24A1 variable regions (antibody, V domains shown)
VH: EVQLVESGGGLVQPKGSLKLSCAASGFTFNVYDMHWVRQAPGEGLEWVARIRSKSSNYATNYADSVKDRFTISRDDSQSMLYLQMNNLQTEDTAIYYCVRDGSHYYYALDYWGQGTSVTVSS
VL: DIQMTQTTSSLSASLGDRVTISCRASQDINNYLNWYQQKLDGTVKLLIYYSSRLHSGVPSRFSGSGSGTDYSLTISNLEQEDIATYFCQQGKMFPWTFGGGTKLEIK

Tests used:
[1] = Test 7: in vivo ocular toxicity test, TB staining of eye sections; set-up: species or system Balb/c mice; settings: eyes removed day 29, FIG. 17
Experimental: The ocular toxicity test was carried out using Balb/c mice. The mice intravenously received “20A77_mIgG1”, “24A1_mIgG1” or an isotype control antibody mIgG1 at a dose of 10 mg/kg at a frequency of twice a week. As a positive control of ocular toxicity, mice orally received a MerTK small molecule inhibitor UNC569 at a dose of 150 mg/kg for 10 days. At day 29 after the first administration, eyes were removed, fixed with a Karnovsky's fixative and then subjected to embedding in a resin, preparation of sections and toluidine blue staining (hereinafter also referred to as “TB staining”) carried out by Applied Medical Research Laboratory.

[2] = administration to mice; Non-Patent Document 3; cited from earlier work
[3] = system: mouse colon cancer cell line CT26; assay: Test 4: efficacious dosage in CT26 syngeneic tumor model; type: in vivo, Balb/c mice; settings: vs solvent control
Experimental: (§1) CT26 cells (5×10^6 cells per mouse) were subcutaneously transplanted to Balb/c mice at the right flank. After 5 days of the tumor transplantation, the mice were divided into groups and an isotype control antibody mIgG2a and “20A77_mIgG2a” were respectively intraperitoneally administered at a dose of 10 mg/kg at a frequency of twice a week. After the administration, the tumor size was measured at a frequency of twice a week until day 19 after the tumor transplantation. The tumor size was calculated from the equation below with the minor axis and the major axis of the tumor measured using calipers:
On the basis of the procedures indicated below, anti-tumor effects of “20A77_mIgG1” and “24A1_mIgG1” according to the dosage thereof were evaluated. As “Test 3” above, a syngeneic tumor model using the mouse colon cancer cell line CT26 (ATCC) was used for the evaluation.
In the “20A77_mIgG1” administration group, a solvent (1% histidine buffer, pH 6.0) and “20A77_mIgG1” were intraperitoneally administered at a dose of 3, 10 or 30 mg/kg at a frequency of twice a week. […] The tumor size was measured at a frequency of twice a week until day 19 and 22 after the tumor transplantation for the “20A77_mIgG1” and “24A1_mIgG1” administration groups, respectively.

[4] = system: mouse colon cancer cell line CT26; assay: Test 5: combined administration with anti-PD-1 antibody in CT26 syngeneic tumor model; type: in vivo, Balb/c mice; settings: 5 mg/kg plus anti-mouse PD-1 antibody 29F.1A12 0.3 mg/kg, twice a week until day 19; FIGS. 11 and 12
Experimental: as §1
On the basis of the procedures indicated below, anti-tumor effects of combined use of each of “20A77_mIgG1” and “24A1_mIgG1” and an anti-PD-1 antibody were evaluated. As “Test 3” above, a syngeneic tumor model using the mouse colon cancer cell line CT26 (ATCC) was used for the evaluation. Anti-PD-1 antibodies are known to have anti-tumor effects.
The administration groups received the antibodies indicated below at a frequency of twice a week. […]

Molecule | TB-positive granules in the retinal pigment epithelium ([1]; positive control, 150 mg/kg oral for 10 days) | ocular toxicity: toluidine blue-positive granules and vacuoles in photoreceptor [2] | tumor growth suppressing effect ([3]; 5 mg/kg intraperitoneal twice a week, until day 22, FIGS. 9 and 10) | tumor growth suppressing effect ([3]; 30 mg/kg intraperitoneal twice a week, day 19 (20A77_mIgG1) or day 22 (24A1_mIgG1)) | anti-tumor effects of combined use with anti-PD-1 antibody [4] | TB-positive granules in the retinal pigment epithelium ([1]; 10 mg/kg intravenous twice a week)
CCCCNc1ncc2c(-c3ccc(F)cc3)nn(CC3CCC(N)CC3)c2n1 (stereo not drawn) [UNC569, reference compound] | increased TB-positive granules | increased toluidine blue-positive granules and vacuoles in photoreceptor, resulting in ocular toxicity |  |  |  | 
B1 |  |  | significant tumor growth suppression | significant tumor growth suppression | had enhanced anti-tumor effects | no increase in TB-positive granules was observed

Reference: patent publication US20250326862A1, “Antibody or Fragment Thereof Binding Specifically to Mertk, and Anti-Tumor Agent” (Chiome Bioscience Inc., priority 2021, published 2025)
